Data from doi:10.1101/096651 (bioRxiv, 2016).

Columns and labels:
Test in all cases: SEC
[1] = target: Apo-COCP (colorless apoprotein of COCP, OCP-CTD without carotenoid) (Synechocystis sp. PCC 6803) (UniProt P74102)
[2] = target: C-terminal OCP-related Carotenoid Protein (COCP), carotenoid-bound OCP-CTD (Synechocystis sp. PCC 6803) (UniProt P74102)
SEC = target: the molecule itself

Molecule: Apo-COCP (colorless apoprotein of COCP, OCP-CTD without carotenoid) (from UniProt P74102 1-317) (domain or fragment)
- stoichiometry N [1]: 2

Molecule: C-terminal OCP-related Carotenoid Protein (COCP), carotenoid-bound OCP-CTD (from UniProt P74102 1-317) (domain or fragment)
- stoichiometry N [2]: 2

B1: Fluorescence Recovery Protein (FRP) (natural protein)
chain: MLQTAEAPWSQAETQSAHALFRKAYQRELDGLLATVQAQASQITQIDDLWKLHDFLSAKRHEIDGKYDDRQSVIIFVFAQLLKEGLVQAEELTFLAADKQSKIKALARL
- stoichiometry N (SEC): 2
